According to PMC7808953 (Redox Biology, 2020):

Biological target: the molecule itself
Test: native gel or EMSA

B1: hypochlorite-treated α2-macroglobulin (natural protein)
chain: SVSGKPQYMVLVPSLLHTETTEKGCVLLSYLNETVTVSASLESVRGNRSLFTDLEAENDVLHCVAFAVPKSSSNEEVMFLTVQVKGPTQEFKKRTTVMVKNEDSLVFVQTDKSIYKPGQTVKFRVVSMDENFHPLNELIPLVYIQDPKGNRIAQWQSFQLEGGLKQFSFPLSSEPFQGSYKVVVQKKSGGRTEHPFTVEEFVLPKFEVQVTVPKIITILEEEMNVSVCGLYTYGKPVPGHVTVSICRKYSDASDCHGEDSQAFCEKFSGQLNSHGCFYQQVKTKVFQLKRKEYEMKLHTEAQIQEEGTVVELTGRQSSEITRTITKLSFVKVDSHFRQGIPFFGQVRLVDGKGVPIPNKVIFIRGNEANYYSNATTDEHGLVQFSINTTNVMGTSLTVRVNYKDRSPCYGYQWVSEEHEEAHHTAYLVFSPSKSFVHLEPMSHELPCGHTQTVQAHYILNGGTLLGLKKLSFYYLIMAKGGIVRTGTHGLLVKQEDMKGHFSISIPVKSDIAPVARLLIYAVLPTGDVIGDSAKYDVENCLANKVDLSFSPSQSLPASHAHLRVTAAPQSVCALRAVDQSVLLMKPDAELSASSVYNLLPEKDLTGFPGPLNDQDNEDCINRHNVYINGITYTPVSSTNEKDMYSFLEDMGLKAFTNSKIRKPKMCPQLQQYEMHGPEGLRVGFYESDVMGRGHARLVHVEEPHTETVRKYFPETWIWDLVVVNSAGVAEVGVTVPDTITEWKAGAFCLSEDAGLGISSTASLRAFQPFFVELTMPYSVIRGEAFTLKATVLNYLPKCIRVSVQLEASPAFLAVPVEKEQAPHCICANGRQTVSWAVTPKSLGNVNFTVSAEALESQELCGTEVPSVPEHGRKDTVIKPLLVEPEGLEKETTFNSLLCPSGGEVSEELSLKLPPNVVEESARASVSVLGDILGSAMQNTQNLLQMPYGCGEQNMVLFAPNIYVLDYLNETQQLTPEIKSKAIGYLNTGYQRQLNYKHYDGSYSTFGERYGRNQGNTWLTAFVLKTFAQARAYIFIDEAHITQALIWLSQRQKDNGCFRSSGSLLNNAIKGGVEDEVTLSAYITIALLEIPLTVTHPVVRNALFCLESAWKTAQEGDHGSHVYTKALLAYAFALAGNQDKRKEVLKSLNEEAVKKDNSVHWERPQKPKAPVGHFYEPQAPSAEVEMTSYVLLAYLTAQPAPTSEDLTSATNIVKWITKQQNAQGGFSSTQDTVVALHALSKYGAATFTRTGKAAQVTIQSSGTFSSKFQVDNNNRLLLQQVSLPELPGEYSMKVTGEGCVYLQTSLKYNILPEKEEFPFALGVQTLPQTCDEPKAHTSFQISLSVSYTGSRSASNMAIVDVKMVSGFIPLKPTVKMLERSNHVSRTEVSSNHVLIYLDKVSNQTLSLFFTVLQDVPVRDLKPAIVKVYDYYETDEFAIAEYNAPCSKDLGNA
modifications: modified by hypochlorite (NaOCl); residues not given
- stoichiometry N: 2
